The labels stand for the following.
B1: DISC1 598-854 C680S/C682S/C684S/C698S/C762S/C782S/C844S (domain or fragment)
chain: GNHFFTAKDLTEEIRSLTSEREGLEGLLSKLLVLSSRNVKKLGSVKEDYNRLRREVEHQETAYETSVKENTMKYMETLKNKLSSSKSPLLGKVWEADLEASRLLIQSLQLQEARGSLSVEDERQMDDLEGAAPPIPPRLHSEDKRKTPLKVLEEFKTHLIPSLHSAGGEQKEESYILSAELGEKSEDIGKKLLYLEDQLHTAIHSHDEDLIQSLRRELQMVKETLQAMILQLQPAKEAGEREAAASSMTAGVHEAQA
B2: DISC1 598-854 C684S/C698S/C762S/C782S/C844S (domain or fragment)
chain: GNHFFTAKDLTEEIRSLTSEREGLEGLLSKLLVLSSRNVKKLGSVKEDYNRLRREVEHQETAYETSVKENTMKYMETLKNKLCSCKSPLLGKVWEADLEASRLLIQSLQLQEARGSLSVEDERQMDDLEGAAPPIPPRLHSEDKRKTPLKVLEEFKTHLIPSLHSAGGEQKEESYILSAELGEKSEDIGKKLLYLEDQLHTAIHSHDEDLIQSLRRELQMVKETLQAMILQLQPAKEAGEREAAASSMTAGVHEAQA
B3: DISC1 598-854 C680S/C682S/C698S/C762S/C782S/C844S (domain or fragment)
chain: GNHFFTAKDLTEEIRSLTSEREGLEGLLSKLLVLSSRNVKKLGSVKEDYNRLRREVEHQETAYETSVKENTMKYMETLKNKLSSSKCPLLGKVWEADLEASRLLIQSLQLQEARGSLSVEDERQMDDLEGAAPPIPPRLHSEDKRKTPLKVLEEFKTHLIPSLHSAGGEQKEESYILSAELGEKSEDIGKKLLYLEDQLHTAIHSHDEDLIQSLRRELQMVKETLQAMILQLQPAKEAGEREAAASSMTAGVHEAQA
B4: DISC1 598-854 C680S/C684S/C698S/C762S/C782S/C844S (domain or fragment)
chain: GNHFFTAKDLTEEIRSLTSEREGLEGLLSKLLVLSSRNVKKLGSVKEDYNRLRREVEHQETAYETSVKENTMKYMETLKNKLSSCKSPLLGKVWEADLEASRLLIQSLQLQEARGSLSVEDERQMDDLEGAAPPIPPRLHSEDKRKTPLKVLEEFKTHLIPSLHSAGGEQKEESYILSAELGEKSEDIGKKLLYLEDQLHTAIHSHDEDLIQSLRRELQMVKETLQAMILQLQPAKEAGEREAAASSMTAGVHEAQA
B5: DISC1 598-854 C680S/C698S/C762S/C782S/C844S (domain or fragment)
chain: GNHFFTAKDLTEEIRSLTSEREGLEGLLSKLLVLSSRNVKKLGSVKEDYNRLRREVEHQETAYETSVKENTMKYMETLKNKLSSCKCPLLGKVWEADLEASRLLIQSLQLQEARGSLSVEDERQMDDLEGAAPPIPPRLHSEDKRKTPLKVLEEFKTHLIPSLHSAGGEQKEESYILSAELGEKSEDIGKKLLYLEDQLHTAIHSHDEDLIQSLRRELQMVKETLQAMILQLQPAKEAGEREAAASSMTAGVHEAQA
B6: DISC1 598-854 C682S/C698S/C762S/C782S/C844S (domain or fragment)
chain: GNHFFTAKDLTEEIRSLTSEREGLEGLLSKLLVLSSRNVKKLGSVKEDYNRLRREVEHQETAYETSVKENTMKYMETLKNKLCSSKCPLLGKVWEADLEASRLLIQSLQLQEARGSLSVEDERQMDDLEGAAPPIPPRLHSEDKRKTPLKVLEEFKTHLIPSLHSAGGEQKEESYILSAELGEKSEDIGKKLLYLEDQLHTAIHSHDEDLIQSLRRELQMVKETLQAMILQLQPAKEAGEREAAASSMTAGVHEAQA
B7: DISC1 598-854 C698S/C762S/C782S/C844S (domain or fragment)
chain: GNHFFTAKDLTEEIRSLTSEREGLEGLLSKLLVLSSRNVKKLGSVKEDYNRLRREVEHQETAYETSVKENTMKYMETLKNKLCSCKCPLLGKVWEADLEASRLLIQSLQLQEARGSLSVEDERQMDDLEGAAPPIPPRLHSEDKRKTPLKVLEEFKTHLIPSLHSAGGEQKEESYILSAELGEKSEDIGKKLLYLEDQLHTAIHSHDEDLIQSLRRELQMVKETLQAMILQLQPAKEAGEREAAASSMTAGVHEAQA
B8: DISC1 598-854 C682S/C684S/C698S/C762S/C782S/C844S (domain or fragment)
chain: GNHFFTAKDLTEEIRSLTSEREGLEGLLSKLLVLSSRNVKKLGSVKEDYNRLRREVEHQETAYETSVKENTMKYMETLKNKLCSSKSPLLGKVWEADLEASRLLIQSLQLQEARGSLSVEDERQMDDLEGAAPPIPPRLHSEDKRKTPLKVLEEFKTHLIPSLHSAGGEQKEESYILSAELGEKSEDIGKKLLYLEDQLHTAIHSHDEDLIQSLRRELQMVKETLQAMILQLQPAKEAGEREAAASSMTAGVHEAQA

This data set concerns the molecule itself. In words: SEC.
Take B1: the binding result is “binds”.
For B2 the value was “binds”; for B3, “binds”; for B4, “binds”.
Under B5 stands “binds”; under B6, “binds”.
Take B7: the binding result is “binds”.
For the protein B8, the binding result is reported as “binds”.
